Assay results published in article PMC12260524, “Identification of a VPS29 isoform with restricted association to Retriever and Retromer accessory proteins through autoinhibition” (Proceedings of the National Academy of Sciences of the …, 2025).

Biological target: GST-VPS29C (human, UniProt F8VXU5 1-214)
Experiment: ITC; 300 μM peptide titrated into 10 μM GST-tagged VPS29C, 25 °C, 50 mM Tris-HCl pH 7.5, 200 mM NaCl, 2 mM β-mercaptoethanol; single-site model
Details: both partners purified

B1: VPS35L 16 to 38 (peptide)
peptide: EFASCRLEAVPLEFGDYHPLKPI
notes: also called VPS35L Pro-Leu motif containing peptide
- Kd: > 100 µM
